Experimental data as given in patent US20240123070A1, “EPITOPE PEPTIDE OF RAS G13D MUTANT AND T CELL RECEPTOR RECOGNIZING RAS G13D MUTANT” (SHANGHAI GENBASE BIOTECHNOLOGY CO., LTD., priority 2021, published 2024).
Changes are numbered by the printed parent chain.

T1: KRAS G13D (G13D-RT6) peptide on HLA-DQA1*05:01 / HLA-DQB1*03:01 (human)
T1 chain: YKLVVVGAGDVGKSAL

B1: B8.2.4 TCR mutant β95Q-A (protein)
chain 1: AQKITQTQPGMFVQEKEAVTLDCTYDTSDPSYGLFWYKQPSSGEMIFLIYQGSYDQQNATEGRYSLNFQKARKSANLVISASQLGDSAMYFCAMRERTGTASKLTFGTGTRLQVTL
chain 2: DVKVTQSSRYLVKRTGEKVFLECVQDMDHENMFWYRQDPGLGLRLIYFSYDVKMKEKGDIPEGYSVSREKKERFSLILESASTNQTSMYLCASSATVPPQHFGDGTRLSIL
B2: B8.2.4 TCR mutant β95Q-N (protein)
chain 1: B1 chain 1
chain 2: B1 chain 2 with A95N
B3: B8.2.4 TCR mutant β98P-F (protein)
chain 1: B1 chain 1
chain 2: B1 chain 2 with A95Q, P98F
B4: B8.2.4 TCR mutant β95Q-W (protein)
chain 1: B1 chain 1
chain 2: B1 chain 2 with A95W
B5: B8.2.4 TCR mutant β95Q-G (protein)
chain 1: B1 chain 1
chain 2: B1 chain 2 with A95G
B6: B8.2.4 TCR mutant β95Q-M (protein)
chain 1: B1 chain 1
chain 2: B1 chain 2 with A95M
B7: B8.2.4 TCR mutant β95Q-D (protein)
chain 1: B1 chain 1
chain 2: B1 chain 2 with A95D
B8: B8.2.4 TCR mutant β98P-V (protein)
chain 1: B1 chain 1
chain 2: B1 chain 2 with A95Q, P98V
B9: B8.2.4 TCR mutant β95Q-H (protein)
chain 1: B1 chain 1
chain 2: B1 chain 2 with A95H
B10: B8.2.4 TCR mutant β95Q-T (protein)
chain 1: B1 chain 1
chain 2: B1 chain 2 with A95T
B11: B8.2.4 TCR mutant β98P-M (protein)
chain 1: B1 chain 1
chain 2: B1 chain 2 with A95Q, P98M
B12: B8.2.4 TCR mutant β95Q-V (protein)
chain 1: B1 chain 1
chain 2: B1 chain 2 with A95V
B13: B8.2.4 TCR mutant β98P-D (protein)
chain 1: B1 chain 1
chain 2: B1 chain 2 with A95Q, P98D
B14: B8.2.4 TCR mutant β95Q-Y (protein)
chain 1: B1 chain 1
chain 2: B1 chain 2 with A95Y
B15: B8.2.4 TCR mutant β95Q-I (protein)
chain 1: B1 chain 1
chain 2: B1 chain 2 with A95I
B16: B8.2.4 TCR mutant β98P-S (protein)
chain 1: B1 chain 1
chain 2: B1 chain 2 with A95Q, P98S
B17: B8.2.4 TCR mutant β97V-T (protein)
chain 1: B1 chain 1
chain 2: B1 chain 2 with A95Q, V97T
B18: B8.2.4 TCR mutant β97V-I (protein)
chain 1: B1 chain 1
chain 2: B1 chain 2 with A95Q, V97I
B19: B8.2.4 TCR mutant β98P-W (protein)
chain 1: B1 chain 1
chain 2: B1 chain 2 with A95Q, P98W
B20: B8.2.4 TCR mutant β95Q-C (protein)
chain 1: B1 chain 1
chain 2: B1 chain 2 with A95C
B21: B8.2.4 TCR mutant β95Q-E (protein)
chain 1: B1 chain 1
chain 2: B1 chain 2 with A95E
B22: B8.2.4 TCR mutant β98P-H (protein)
chain 1: B1 chain 1
chain 2: B1 chain 2 with A95Q, P98H
B23: B8.2.4 TCR mutant β98P-G (protein)
chain 1: B1 chain 1
chain 2: B1 chain 2 with A95Q, P98G
B24: B8.2.4 TCR mutant β97V-S (protein)
chain 1: B1 chain 1
chain 2: B1 chain 2 with A95Q, V97S
B25: B8.2.4 TCR mutant β98P-L (protein)
chain 1: B1 chain 1
chain 2: B1 chain 2 with A95Q, P98L
B26: B8.2.4 TCR mutant β98P-R (protein)
chain 1: B1 chain 1
chain 2: B1 chain 2 with A95Q, P98R
B27: B8.2.4 TCR mutant β98P-C (protein)
chain 1: B1 chain 1
chain 2: B1 chain 2 with A95Q, P98C

Target: T1, KRAS G13D (G13D-RT6) peptide on …
Experiment: NFAT-luciferase; Jurkat-NFAT-Luc with the TCR and Lovo-DPA0301:DPB0501 cells loaded with G13D-RT6; against wild-type B8.2.4 TCR; full-length, on cells
Conditions: chains Valpha:Vbeta
Work on B1 yielded a TCR Mut RLU/WT RLU of 0.86. Work on B2 yielded a TCR Mut RLU/WT RLU of 0.6. Work on B3 yielded a TCR Mut RLU/WT RLU of 0.96. For B4, the TCR Mut RLU/WT RLU was 0.88. Work on B5 yielded a TCR Mut RLU/WT RLU of 1.03. Work on B6 yielded a TCR Mut RLU/WT RLU of 0.99. With B7 the TCR Mut RLU/WT RLU was 0.6. Binder B8 has a TCR Mut RLU/WT RLU of 0.63. B9 was tested, and the TCR Mut RLU/WT RLU was 0.68. For B10, the TCR Mut RLU/WT RLU was 0.59. In the case of B11, the TCR Mut RLU/WT RLU is reported as 0.83. For B12, the TCR Mut RLU/WT RLU was 0.76. In the case of B13, the TCR Mut RLU/WT RLU is reported as 0.8. With B14 the TCR Mut RLU/WT RLU was 0.92. Binder B15 has a TCR Mut RLU/WT RLU of 0.74. In the case of B16, the TCR Mut RLU/WT RLU is reported as 0.94. Work on B17 yielded a TCR Mut RLU/WT RLU of 0.98. For B18, the TCR Mut RLU/WT RLU was 0.61. For B19, the TCR Mut RLU/WT RLU was 0.81. Binder B20 has a TCR Mut RLU/WT RLU of 1.14. In the case of B21, the TCR Mut RLU/WT RLU is reported as 0.81. In the case of B22, the TCR Mut RLU/WT RLU is reported as 0.6. For B23, the TCR Mut RLU/WT RLU was 0.73. With B24 the TCR Mut RLU/WT RLU was 0.78. B25 showed a TCR Mut RLU/WT RLU of 0.67. B26 showed a TCR Mut RLU/WT RLU of 0.73. Work on B27 yielded a TCR Mut RLU/WT RLU of 1.11.
